Data published in publication doi:10.1101/2025.05.04.652084.

How the values were obtained:
[1] = target: taxol-stabilized porcine brain GDP-microtubules (porcine) (UniProt P02550)
[2] = target: taxol-stabilized porcine brain GDP-microtubules (porcine) (UniProt P02550); remark: listed apart in the source

Chain of UniProt P02550 (P02550 46-451): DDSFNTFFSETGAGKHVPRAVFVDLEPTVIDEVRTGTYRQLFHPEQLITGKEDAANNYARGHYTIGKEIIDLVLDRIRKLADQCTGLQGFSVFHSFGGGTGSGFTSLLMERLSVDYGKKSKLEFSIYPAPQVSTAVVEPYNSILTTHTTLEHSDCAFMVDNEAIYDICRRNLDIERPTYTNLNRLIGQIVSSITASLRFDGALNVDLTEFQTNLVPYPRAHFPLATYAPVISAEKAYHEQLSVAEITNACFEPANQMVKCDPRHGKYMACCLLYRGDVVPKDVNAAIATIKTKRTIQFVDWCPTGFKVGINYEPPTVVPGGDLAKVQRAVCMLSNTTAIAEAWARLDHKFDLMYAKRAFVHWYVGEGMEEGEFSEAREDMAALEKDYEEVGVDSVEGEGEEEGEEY

| K (1/2,MT) of the microtubule-stimulated ATPase activity [1] | microtubule detachment rate under load [2] | Substance |
| --- | --- | --- |
| 4.2 µM | 3.9 s⁻¹ | GcKIF5A (enzyme) |
| 2.2 µM | 1.3 s⁻¹ | MmKIF5A (from UniProt P33175 1-1027) (enzyme) |
